{"source": "the supplement of paper PMC10567573", "parents": {"B1": {"name": "KLHL14 (parent)", "chain": "WLYCYDPVMDVWARKQDMNTKRAI"}}}
{"variants_of": "B1", "assay": "protein stability index of a GFP-peptide fusion (GPS, HEK-293T) (PSI 1-6); higher = more stable", "conditions": "c terminus: a fixed tail appended"}
{"variant": "TLYCYDPVMDVWARKQDMNTKRAI", "note": "[W1T]", "protein stability index": 3.09}
{"variant": "VLYCYDPVMDVWARKQDMNTKRAI", "note": "[W1V]", "protein stability index": 1.63}
{"variant": "NLYCYDPVMDVWARKQDMNTKRAI", "note": "[W1N]", "protein stability index": 3.29}
{"variant": "YLYCYDPVMDVWARKQDMNTKRAI", "note": "[W1Y]", "protein stability index": 2.25}
{"variant": "PLYCYDPVMDVWARKQDMNTKRAI", "note": "[W1P]", "protein stability index": 2.88}
{"variant": "MLYCYDPVMDVWARKQDMNTKRAI", "note": "[W1M]", "protein stability index": 2.62}
{"variant": "RLYCYDPVMDVWARKQDMNTKRAI", "note": "[W1R]", "protein stability index": 2.55}
{"variant": "LLYCYDPVMDVWARKQDMNTKRAI", "note": "[W1L]", "protein stability index": 2.53}
{"variant": "QLYCYDPVMDVWARKQDMNTKRAI", "note": "[W1Q]", "protein stability index": 3.33}
{"variant": "SLYCYDPVMDVWARKQDMNTKRAI", "note": "[W1S]", "protein stability index": 3.06}
{"variant": "WLYCRDPVMDVWARKQDMNTKRAI", "note": "[Y5R]", "protein stability index": 2.26}
{"variant": "WLYCHDPVMDVWARKQDMNTKRAI", "note": "[Y5H]", "protein stability index": 1.91}
{"variant": "WLYCQDPVMDVWARKQDMNTKRAI", "note": "[Y5Q]", "protein stability index": 1.6}
{"variant": "WLYCLDPVMDVWARKQDMNTKRAI", "note": "[Y5L]", "protein stability index": 2.24}
{"variant": "WLYCADPVMDVWARKQDMNTKRAI", "note": "[Y5A]", "protein stability index": 1.92}
{"variant": "WLYCPDPVMDVWARKQDMNTKRAI", "note": "[Y5P]", "protein stability index": 2.9}
{"variant": "WLYCDDPVMDVWARKQDMNTKRAI", "note": "[Y5D]", "protein stability index": 2.61}
{"variant": "WLYCCDPVMDVWARKQDMNTKRAI", "note": "[Y5C]", "protein stability index": 2.25}
{"variant": "WLYCEDPVMDVWARKQDMNTKRAI", "note": "[Y5E]", "protein stability index": 2.23}
{"variant": "WLYCGDPVMDVWARKQDMNTKRAI", "note": "[Y5G]", "protein stability index": 2.43}
{"variant": "WLYCVDPVMDVWARKQDMNTKRAI", "note": "[Y5V]", "protein stability index": 1.98}
{"variant": "WLYCTDPVMDVWARKQDMNTKRAI", "note": "[Y5T]", "protein stability index": 1.83}
{"variant": "WLYCMDPVMDVWARKQDMNTKRAI", "note": "[Y5M]", "protein stability index": 1.92}
{"variant": "WLYCNDPVMDVWARKQDMNTKRAI", "note": "[Y5N]", "protein stability index": 2.08}
{"variant": "WLYCSDPVMDVWARKQDMNTKRAI", "note": "[Y5S]", "protein stability index": 2.46}
{"variant": "WLYCWDPVMDVWARKQDMNTKRAI", "note": "[Y5W]", "protein stability index": 1.44}
{"variant": "WLYCIDPVMDVWARKQDMNTKRAI", "note": "[Y5I]", "protein stability index": 1.93}
{"variant": "WLYCFDPVMDVWARKQDMNTKRAI", "note": "[Y5F]", "protein stability index": 2.31}
{"variant": "WLYCKDPVMDVWARKQDMNTKRAI", "note": "[Y5K]", "protein stability index": 2.46}
{"variant": "WLYCYAPVMDVWARKQDMNTKRAI", "note": "[D6A]", "protein stability index": 3.01}
{"variant": "WLYCYHPVMDVWARKQDMNTKRAI", "note": "[D6H]", "protein stability index": 2.6}
{"variant": "WLYCYCPVMDVWARKQDMNTKRAI", "note": "[D6C]", "protein stability index": 2.14}
{"variant": "WLYCYEPVMDVWARKQDMNTKRAI", "note": "[D6E]", "protein stability index": 1.74}
{"variant": "WLYCYIPVMDVWARKQDMNTKRAI", "note": "[D6I]", "protein stability index": 1.83}
{"variant": "WLYCYFPVMDVWARKQDMNTKRAI", "note": "[D6F]", "protein stability index": 2.99}
{"variant": "WLYCYGPVMDVWARKQDMNTKRAI", "note": "[D6G]", "protein stability index": 2.9}
{"variant": "WLYCYKPVMDVWARKQDMNTKRAI", "note": "[D6K]", "protein stability index": 2.11}
{"variant": "WLKCYDPVMDVWARKQDMNTKRAI", "note": "[Y3K]", "protein stability index": 2.09}
{"variant": "WLTCYDPVMDVWARKQDMNTKRAI", "note": "[Y3T]", "protein stability index": 2.36}
{"variant": "WLECYDPVMDVWARKQDMNTKRAI", "note": "[Y3E]", "protein stability index": 2.33}
{"variant": "WLPCYDPVMDVWARKQDMNTKRAI", "note": "[Y3P]", "protein stability index": 2.7}
{"variant": "WLDCYDPVMDVWARKQDMNTKRAI", "note": "[Y3D]", "protein stability index": 2.44}
{"variant": "WLMCYDPVMDVWARKQDMNTKRAI", "note": "[Y3M]", "protein stability index": 1.96}
{"variant": "WLICYDPVMDVWARKQDMNTKRAI", "note": "[Y3I]", "protein stability index": 2.06}
{"variant": "WLLCYDPVMDVWARKQDMNTKRAI", "note": "[Y3L]", "protein stability index": 2.15}
{"variant": "WLACYDPVMDVWARKQDMNTKRAI", "note": "[Y3A]", "protein stability index": 2.02}
{"variant": "WLWCYDPVMDVWARKQDMNTKRAI", "note": "[Y3W]", "protein stability index": 2.42}
{"variant": "WLHCYDPVMDVWARKQDMNTKRAI", "note": "[Y3H]", "protein stability index": 2.22}
{"variant": "WLSCYDPVMDVWARKQDMNTKRAI", "note": "[Y3S]", "protein stability index": 1.77}
{"variant": "WLCCYDPVMDVWARKQDMNTKRAI", "note": "[Y3C]", "protein stability index": 2.64}
{"variant": "WLQCYDPVMDVWARKQDMNTKRAI", "note": "[Y3Q]", "protein stability index": 1.97}
{"variant": "WLVCYDPVMDVWARKQDMNTKRAI", "note": "[Y3V]", "protein stability index": 2.86}
{"variant": "WLGCYDPVMDVWARKQDMNTKRAI", "note": "[Y3G]", "protein stability index": 2.01}
{"variant": "WLNCYDPVMDVWARKQDMNTKRAI", "note": "[Y3N]", "protein stability index": 2.12}
{"variant": "WLFCYDPVMDVWARKQDMNTKRAI", "note": "[Y3F]", "protein stability index": 1.65}
{"variant": "WLRCYDPVMDVWARKQDMNTKRAI", "note": "[Y3R]", "protein stability index": 1.25}
{"variant": "WLYHYDPVMDVWARKQDMNTKRAI", "note": "[C4H]", "protein stability index": 2.6}
{"variant": "WLYNYDPVMDVWARKQDMNTKRAI", "note": "[C4N]", "protein stability index": 2.5}
{"variant": "WLYYYDPVMDVWARKQDMNTKRAI", "note": "[C4Y]", "protein stability index": 2.13}
{"variant": "WLYLYDPVMDVWARKQDMNTKRAI", "note": "[C4L]", "protein stability index": 1.61}
{"variant": "WLYRYDPVMDVWARKQDMNTKRAI", "note": "[C4R]", "protein stability index": 1.63}
{"variant": "WLYIYDPVMDVWARKQDMNTKRAI", "note": "[C4I]", "protein stability index": 1.96}
{"variant": "WLYQYDPVMDVWARKQDMNTKRAI", "note": "[C4Q]", "protein stability index": 2.31}
{"variant": "WLYSYDPVMDVWARKQDMNTKRAI", "note": "[C4S]", "protein stability index": 2.14}
{"variant": "WLYAYDPVMDVWARKQDMNTKRAI", "note": "[C4A]", "protein stability index": 2.34}
{"variant": "WLYDYDPVMDVWARKQDMNTKRAI", "note": "[C4D]", "protein stability index": 2.06}
{"variant": "WLYPYDPVMDVWARKQDMNTKRAI", "note": "[C4P]", "protein stability index": 2.51}
{"variant": "WLYTYDPVMDVWARKQDMNTKRAI", "note": "[C4T]", "protein stability index": 2.84}
{"variant": "WLYVYDPVMDVWARKQDMNTKRAI", "note": "[C4V]", "protein stability index": 2.08}
{"variant": "WLYEYDPVMDVWARKQDMNTKRAI", "note": "[C4E]", "protein stability index": 2.41}
{"variant": "WLYFYDPVMDVWARKQDMNTKRAI", "note": "[C4F]", "protein stability index": 1.94}
{"variant": "WLYKYDPVMDVWARKQDMNTKRAI", "note": "[C4K]", "protein stability index": 2.04}
{"variant": "WLYWYDPVMDVWARKQDMNTKRAI", "note": "[C4W]", "protein stability index": 2.35}
{"variant": "WLYMYDPVMDVWARKQDMNTKRAI", "note": "[C4M]", "protein stability index": 1.89}
{"variant": "WLYGYDPVMDVWARKQDMNTKRAI", "note": "[C4G]", "protein stability index": 2.58}
{"variant": "WRYCYDPVMDVWARKQDMNTKRAI", "note": "[L2R]", "protein stability index": 2.06}
{"variant": "WPYCYDPVMDVWARKQDMNTKRAI", "note": "[L2P]", "protein stability index": 2.13}
{"variant": "WFYCYDPVMDVWARKQDMNTKRAI", "note": "[L2F]", "protein stability index": 1.45}
{"variant": "WHYCYDPVMDVWARKQDMNTKRAI", "note": "[L2H]", "protein stability index": 2.35}
{"variant": "WTYCYDPVMDVWARKQDMNTKRAI", "note": "[L2T]", "protein stability index": 2.11}
{"variant": "WMYCYDPVMDVWARKQDMNTKRAI", "note": "[L2M]", "protein stability index": 1.9}
{"variant": "WEYCYDPVMDVWARKQDMNTKRAI", "note": "[L2E]", "protein stability index": 2.61}
{"variant": "WCYCYDPVMDVWARKQDMNTKRAI", "note": "[L2C]", "protein stability index": 2.18}
{"variant": "WGYCYDPVMDVWARKQDMNTKRAI", "note": "[L2G]", "protein stability index": 2.29}
{"variant": "WWYCYDPVMDVWARKQDMNTKRAI", "note": "[L2W]", "protein stability index": 1.56}
{"variant": "WKYCYDPVMDVWARKQDMNTKRAI", "note": "[L2K]", "protein stability index": 2.29}
{"variant": "WVYCYDPVMDVWARKQDMNTKRAI", "note": "[L2V]", "protein stability index": 2.16}
{"variant": "WQYCYDPVMDVWARKQDMNTKRAI", "note": "[L2Q]", "protein stability index": 2.55}
{"variant": "WNYCYDPVMDVWARKQDMNTKRAI", "note": "[L2N]", "protein stability index": 2.19}
{"variant": "WIYCYDPVMDVWARKQDMNTKRAI", "note": "[L2I]", "protein stability index": 1.84}
{"variant": "WAYCYDPVMDVWARKQDMNTKRAI", "note": "[L2A]", "protein stability index": 2.24}
{"variant": "WSYCYDPVMDVWARKQDMNTKRAI", "note": "[L2S]", "protein stability index": 2.39}
{"variant": "WDYCYDPVMDVWARKQDMNTKRAI", "note": "[L2D]", "protein stability index": 2.52}
{"variant": "WYYCYDPVMDVWARKQDMNTKRAI", "note": "[L2Y]", "protein stability index": 2.52}
